Consider one molecule from patent US20250127807A1, “TREATMENT OF VAGINAL DYSBIOTIC CONDITIONS WITH ASSOCIATED ELEVATED VAGINAL CALPROTECTIN” (priority 2022, published 2025).

On the set-up of the series: species or system women. The note with it: in vivo. As for the experimental part: Elevated levels of calprotectin in BV and in L iners-dominated vaginal microbiomes sequester manganese and zinc, preventing growth of L crispatus its maintenance of a healthy vaginal microbiome. […] Six women each received 3 doses of formulation Z2 separated by 48 hours. Vaginal fluid swabs were collected at t=0, 2, 4, 8, 12, 18, 24, 30, 36, and 42 hours post dose and vaginal fluid concentrations of lactoferrin and mannitol were determined. Average concentrations for the combined 18 dose administrations were obtained based on calculation of Area Under Curve for the locally estimated scatterplot smoothing (Loess) profile of lactoferrin and mannitol concentrations assuming 6 mL volume of distribution. The average concentration of lactoferrin was 33 mg/mL and the average concentrations of mannitol was 20 mg/mL. Average concentrations of both substances correspond to 0.1 fraction or 10% of the administered dose, 300 mg lactoferrin and 195 mg mannitol per Z2 tablet respectively. The 0.1 factor was used to estimate the expected average elemental Mn concentration based on the initial dose per tablet.

B1: lactoferrin (protein, UniProt P24627 20-708, looked up)
Lactotransferrin: APRKNVRWCTISQPEWFKCRRWQWRMKKLGAPSITCVRRAFALECIRAIAEKKADAVTLDGGMVFEAGRDPYKLRPVAAEIYGTKESPQTHYYAVAVVKKGSNFQLDQLQGRKSCHTGLGRSAGWIIPMGILRPYLSWTESLEPLQGAVAKFFSASCVPCIDRQAYPNLCQLCKGEGENQCACSSREPYFGYSGAFKCLQDGAGDVAFVKETTVFENLPEKADRDQYELLCLNNSRAPVDAFKECHLAQVPSHAVVARSVDGKEDLIWKLLSKAQEKFGKNKSRSFQLFGSPPGQRDLLFKDSALGFLRIPSKVDSALYLGSRYLTTLKNLRETAEEVKARYTRVVWCAVGPEEQKKCQQWSQQSGQNVTCATASTTDDCIVLVLKGEADALNLDGGYIYTAGKCGLVPVLAENRKSSKHSSLDCVLRPTEGYLAVAVVKKANEGLTWNSLKDKKSCHTAVDRTAGWNIPMGLIVNQTGSCAFDEFFSQSCAPGADPKSRLCALCAGDDQGLDKCVPNSKEKYYGYTGAFRCLAEDVGDVAFVKNDTVWENTNGESTADWAKNLNREDFRLLCLDGTRKPVTEAQSCHLAVAPNHAVVSRSDRAAHVKQVLLHQQALFGKNGKNCPDKFCLFKSETKNLLFNDNTECLAKLGGRPTYEEYLGTEYVTAIANLKKCSTSPLLEACAFLTR
With B1, the “average concentration as fraction of the administered dose” value is given as 10%.
